Consider one molecule from publication PMC11402128, “The stability of FKBP9 maintained by BiP is crucial for glioma progression” (Genes & Diseases, 2023).

For this experiment, the target named is T1, human recombinant protein BiP (TP305859, Origene) (human, UniProt P11021 19-654).
T1 construct: also called purified BiP; source: bought: Origene (TP305859)
Put plainly: SPR; BScreen LB 991 label-free microarray system; proteins printed on the chip and photo-cross-linked; analyte proteins at 200, 400, 800, 1600 and 3200 nM in 10 mM HEPES pH 7.0, 3 mM EDTA, 150 mM NaCl, 0.005% P20; 5 uL/min, 10 min association, 6 min dissociation; constants by slope fitting. The settings on record: both partners purified. For orientation: SPR reads the build-up and loss of mass on a sensor chip optically.

T1 sequence (P11021 19-654): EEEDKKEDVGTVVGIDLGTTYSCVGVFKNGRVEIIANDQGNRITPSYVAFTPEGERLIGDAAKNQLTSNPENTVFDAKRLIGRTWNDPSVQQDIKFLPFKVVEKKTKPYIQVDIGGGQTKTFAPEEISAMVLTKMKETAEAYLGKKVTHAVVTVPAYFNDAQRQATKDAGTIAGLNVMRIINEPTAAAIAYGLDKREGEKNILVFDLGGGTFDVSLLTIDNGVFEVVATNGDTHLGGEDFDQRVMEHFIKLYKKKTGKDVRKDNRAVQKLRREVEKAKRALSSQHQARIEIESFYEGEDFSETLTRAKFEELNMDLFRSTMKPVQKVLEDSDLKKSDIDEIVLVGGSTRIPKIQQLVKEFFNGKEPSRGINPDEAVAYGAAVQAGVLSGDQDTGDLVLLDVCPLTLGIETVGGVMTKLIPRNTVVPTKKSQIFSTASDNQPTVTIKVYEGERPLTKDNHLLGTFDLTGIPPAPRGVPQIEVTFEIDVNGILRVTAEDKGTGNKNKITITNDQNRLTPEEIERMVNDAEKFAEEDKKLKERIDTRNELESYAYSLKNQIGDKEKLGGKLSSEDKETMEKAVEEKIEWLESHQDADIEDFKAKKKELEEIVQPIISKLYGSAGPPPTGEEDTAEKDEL

B1: human recombinant protein FKBP9 (TP322307, Origene) (natural protein, UniProt O95302 25-570, looked up)
chain: APVAGLGSDAELQIERRFVPDECPRTVRSGDFVRYHYVGTFPDGQKFDSSYDRDSTFNVFVGKGQLITGMDQALVGMCVNERRFVKIPPKLAYGNEGVSGVIPPNSVLHFDVLLMDIWNSEDQVQIHTYFKPPSCPRTIQVSDFVRYHYNGTFLDGTLFDSSHNRMKTYDTYVGIGWLIPGMDKGLLGMCVGEKRIITIPPFLAYGEDGDGKDIPGQASLVFDVALLDLHNPKDSISIENKVVPENCERISQSGDFLRYHYNGTLLDGTLFDSSYSRNRTFDTYIGQGYVIPGMDEGLLGVCIGEKRRIVVPPHLGYGEEGRGNIPGSAVLVFDIHVIDFHNPSDSISITSHYKPPDCSVLSKKGDYLKYHYNASLLDGTLLDSTWNLGKTYNIVLGSGQVVLGMDMGLREMCVGEKRTVIIPPHLGYGEAGVDGEVPGSAVLVFDIELLELVAGLPEGYMFIWNGEVSPNLFEEIDKDGNGEVLLEEFSEYIHAQVASGKGKLAPGFDAELIVKNMFTNQDRNGDGKVTAEEFKLKDQEAKHDEL
notes: also called purified FKBP9; source: bought: Origene (TP322307)
A word on the Kd: it is the equilibrium constant for the complex coming apart. Regarding B1, the Kd is 271 nM.
